The source of these data is paper PMC6325117, “Highly modified and immunoactive N-glycans of the canine heartworm” (Nature Communications, 2019).

The target of the assay is T1, human complement component C1q (human, UniProt P02745 23-245; P02746 28-253; P02747 29-245).
T1 construct: complement C1q subcomponent subunit A, human; complement C1q subcomponent subunit B, human; complement C1q subcomponent subunit C, human; Detected with fluorescent anti-C1q; also called complement C1q; source: bought: Sigma (C1740); copies: + +
T1 sequence (P02745 23-245, chain 1 of 3): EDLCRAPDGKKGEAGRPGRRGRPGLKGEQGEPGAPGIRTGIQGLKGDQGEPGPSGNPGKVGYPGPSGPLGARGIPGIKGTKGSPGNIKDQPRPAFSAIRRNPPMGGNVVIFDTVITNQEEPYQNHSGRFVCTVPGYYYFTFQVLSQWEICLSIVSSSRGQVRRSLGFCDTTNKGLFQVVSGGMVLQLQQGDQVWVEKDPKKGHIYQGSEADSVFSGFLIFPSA
T1 sequence (P02746 28-253, chain 2 of 3): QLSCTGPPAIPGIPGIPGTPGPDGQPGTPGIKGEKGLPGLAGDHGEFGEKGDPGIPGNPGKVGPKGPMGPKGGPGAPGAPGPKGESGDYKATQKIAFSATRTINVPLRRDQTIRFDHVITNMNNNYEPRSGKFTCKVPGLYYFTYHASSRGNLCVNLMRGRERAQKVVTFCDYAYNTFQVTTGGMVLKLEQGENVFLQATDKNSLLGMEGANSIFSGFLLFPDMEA
T1 sequence (P02747 29-245, chain 3 of 3): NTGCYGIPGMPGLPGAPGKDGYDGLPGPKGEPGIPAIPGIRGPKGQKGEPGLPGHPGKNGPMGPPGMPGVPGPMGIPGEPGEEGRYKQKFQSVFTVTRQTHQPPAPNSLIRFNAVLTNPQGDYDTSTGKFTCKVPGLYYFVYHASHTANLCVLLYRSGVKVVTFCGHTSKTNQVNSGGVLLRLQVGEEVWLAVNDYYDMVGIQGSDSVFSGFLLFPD
Briefly: glycan array; AEAB-labelled D. immitis neutral N-glycan pool printed on NHS-modified glass slides; incubated first with human CRP (5 µg/ml), then serially with C1q and fluorescent anti-C1q; fluorescence read-out, mean of 10 spots. As to conditions: both partners purified.

B1: natural human C-reactive protein (natural protein, UniProt P02741 19-224, looked up)
chain: QTDMSRKAFVFPKESDTSYVSLKAPLTKPLKAFTVCLHFYTELSSTRGYSIFSYATKRQDNEILIFWSKDIGYSFTVGGSEILFEVPEVTVAPVHICTSWESASGIVEFWVDGKPRVRKSLKKGYTVGAEASIILGQEQDSFGGNFEGSQSLVGDIGNVNMWDFVLSPDEINTIYLGGPFSPNVLNWRALKYEVQGEVFTKPQLWP
notes: C-reactive protein, human, natural; called pentameric in the discussion; also called CRP; human pentraxin C-reactive protein; source: bought: MPBio (215231505)
Regarding B1, the binding result was “binds”.
